Measured values: paper PMC9482650, “Quantitative fragmentomics allow affinity mapping of interactomes” (Nature Communications, 2022)

Tests used:
Experiment in all cases: holdup assay
Design in all cases: key: below the threshold = too weak to quantify, mostly under pKd 3.1 to 4
MAGI2_2, Q86UL8 = biological target: MAGI2_2, Q86UL8
RADIL, Q96JH8 = biological target: T1, RADIL, Q96JH8
T1 sequence (Q96JH8 971-1071, limits assumed, looked up): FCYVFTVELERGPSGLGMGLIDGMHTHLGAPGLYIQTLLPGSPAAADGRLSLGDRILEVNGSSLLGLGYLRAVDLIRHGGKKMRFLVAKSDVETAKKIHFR

Inadl_10, Q8NI35 = biological target: Inadl_10, Q8NI35
Chain of Inadl_10, Q8NI35 (Q8NI35 1673-1763): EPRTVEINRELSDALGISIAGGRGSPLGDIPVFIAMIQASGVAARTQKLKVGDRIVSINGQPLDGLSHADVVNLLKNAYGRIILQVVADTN

DLG2_2, Q15700 = biological target: DLG2_2, Q15700
Chain of DLG2_2, Q15700 (Q15700 189-283): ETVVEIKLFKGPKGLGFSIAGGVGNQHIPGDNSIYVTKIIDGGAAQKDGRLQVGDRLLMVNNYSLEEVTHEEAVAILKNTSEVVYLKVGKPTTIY

ARHGAP21, Q5T5U3 = biological target: T2, ARHGAP21, Q5T5U3
T2 sequence (Q5T5U3 45-169, limits assumed, looked up): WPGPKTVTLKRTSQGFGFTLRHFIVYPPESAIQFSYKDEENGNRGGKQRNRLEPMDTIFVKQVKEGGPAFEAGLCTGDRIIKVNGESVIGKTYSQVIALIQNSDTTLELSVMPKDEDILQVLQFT

DLG1_2, Q12959 = biological target: DLG1_2, Q12959
PDLIM1, O00151 = biological target: PDLIM1, O00151
Chain of PDLIM1, O00151 (O00151 1-87): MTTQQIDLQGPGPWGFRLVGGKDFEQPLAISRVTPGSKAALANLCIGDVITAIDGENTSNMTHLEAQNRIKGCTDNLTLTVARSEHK

TIAM2, Q8IVF5 = biological target: T3, TIAM2, Q8IVF5
T3 sequence (Q8IVF5 885-986, limits assumed, looked up): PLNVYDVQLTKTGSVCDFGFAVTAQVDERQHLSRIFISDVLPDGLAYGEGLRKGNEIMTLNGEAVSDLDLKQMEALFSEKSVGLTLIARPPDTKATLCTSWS

MPP2, Q14168 = biological target: T4, MPP2, Q14168
T4 sequence (Q14168 180-250, limits assumed, looked up): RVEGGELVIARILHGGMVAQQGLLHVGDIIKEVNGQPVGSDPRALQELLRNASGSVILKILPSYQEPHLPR

RHPN1, Q8TCX5 = biological target: T5, RHPN1, Q8TCX5
T5 sequence (Q8TCX5 508-602, limits assumed, looked up): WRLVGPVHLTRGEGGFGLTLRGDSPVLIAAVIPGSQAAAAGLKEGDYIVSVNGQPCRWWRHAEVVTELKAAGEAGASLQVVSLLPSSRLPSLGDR

NHERF3_3, Q5T2W1 = biological target: T6, NHERF3_3, Q5T2W1
T6 sequence (Q5T2W1 238-333, limits assumed, looked up): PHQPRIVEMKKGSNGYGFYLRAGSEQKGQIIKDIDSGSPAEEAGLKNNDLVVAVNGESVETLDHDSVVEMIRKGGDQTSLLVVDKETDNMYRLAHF

PDZRN4_1, Q6ZMN7 = biological target: PDZRN4_1, Q6ZMN7
Chain of PDZRN4_1, Q6ZMN7 (Q6ZMN7 213-318): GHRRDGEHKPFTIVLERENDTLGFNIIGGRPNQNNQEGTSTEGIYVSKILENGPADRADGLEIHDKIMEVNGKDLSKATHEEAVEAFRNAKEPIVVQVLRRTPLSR

DLG1_1, Q12959 = biological target: DLG1_1, Q12959
Inadl_6, Q8NI35 = biological target: Inadl_6, Q8NI35
Chain of Inadl_6, Q8NI35 (Q8NI35 1058-1167): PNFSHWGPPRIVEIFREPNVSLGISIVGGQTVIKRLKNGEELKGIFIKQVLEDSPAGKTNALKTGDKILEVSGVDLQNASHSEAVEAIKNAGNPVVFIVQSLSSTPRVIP

LIN7B, Q9HAP6 = biological target: T7, LIN7B, Q9HAP6
T7 sequence (Q9HAP6 88-185, limits assumed, looked up): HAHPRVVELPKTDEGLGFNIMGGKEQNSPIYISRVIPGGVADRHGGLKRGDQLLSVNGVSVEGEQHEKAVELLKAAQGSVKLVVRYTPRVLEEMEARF

NHERF3_1, Q5T2W1 = biological target: T8, NHERF3_1, Q5T2W1
T8 sequence (Q5T2W1 4-100, limits assumed, looked up): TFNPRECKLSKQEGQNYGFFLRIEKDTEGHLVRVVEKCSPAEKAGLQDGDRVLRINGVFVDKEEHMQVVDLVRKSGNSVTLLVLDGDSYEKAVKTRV

Inadl_2, Q8NI35 = biological target: Inadl_2, Q8NI35
Chain of Inadl_2, Q8NI35 (Q8NI35 238-335): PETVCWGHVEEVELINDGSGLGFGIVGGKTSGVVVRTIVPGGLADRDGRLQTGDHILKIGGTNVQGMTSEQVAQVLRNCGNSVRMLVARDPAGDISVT

GRASP, Q7Z6J2 = biological target: GRASP, Q7Z6J2
Chain of GRASP, Q7Z6J2 (Q7Z6J2 96-193): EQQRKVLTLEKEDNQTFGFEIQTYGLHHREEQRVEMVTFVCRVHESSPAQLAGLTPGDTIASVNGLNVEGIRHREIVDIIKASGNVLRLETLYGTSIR

ARHGEF12, Q9NZN5-2 = biological target: ARHGEF12, Q9NZN5-2
Chain of ARHGEF12, Q9NZN5-2 (Q9NZN5 other isoform, or with tags, fused parts or gaps): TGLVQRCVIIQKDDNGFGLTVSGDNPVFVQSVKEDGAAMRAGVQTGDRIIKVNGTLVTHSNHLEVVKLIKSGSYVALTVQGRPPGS

DLG5_1, Q8TDM6 = biological target: DLG5_1, Q8TDM6
Chain of DLG5_1, Q8TDM6 (Q8TDM6 617-713): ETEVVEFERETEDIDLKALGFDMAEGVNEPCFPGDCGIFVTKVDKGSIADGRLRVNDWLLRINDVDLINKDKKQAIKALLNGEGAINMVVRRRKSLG

Inadl_8, Q8NI35 = biological target: Inadl_8, Q8NI35
Chain of Inadl_8, Q8NI35 (Q8NI35 1425-1530): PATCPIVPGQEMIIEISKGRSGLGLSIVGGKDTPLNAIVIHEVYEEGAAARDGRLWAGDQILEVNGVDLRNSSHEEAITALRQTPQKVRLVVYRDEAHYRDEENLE

GIPC2, Q8TF65 = biological target: GIPC2, Q8TF65
Chain of GIPC2, Q8TF65 (Q8TF65 112-203): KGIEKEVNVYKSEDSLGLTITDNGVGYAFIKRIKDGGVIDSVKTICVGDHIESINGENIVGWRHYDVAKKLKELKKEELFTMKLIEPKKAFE

LDB3, O75112 = biological target: LDB3, O75112
Chain of LDB3, O75112 (O75112 1-94): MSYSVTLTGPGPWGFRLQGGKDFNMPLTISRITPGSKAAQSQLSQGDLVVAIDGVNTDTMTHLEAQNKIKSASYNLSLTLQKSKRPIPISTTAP

GRID2IP_1, A4D2P6 = biological target: GRID2IP_1, A4D2P6
Chain of GRID2IP_1, A4D2P6 (A4D2P6 1-87): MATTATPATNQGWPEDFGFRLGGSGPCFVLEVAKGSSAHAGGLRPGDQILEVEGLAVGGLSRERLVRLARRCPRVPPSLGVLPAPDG

NHERF4_1, Q86UT5-2 = biological target: NHERF4_1, Q86UT5-2
Chain of NHERF4_1, Q86UT5-2 (Q86UT5 other isoform, or with tags, fused parts or gaps): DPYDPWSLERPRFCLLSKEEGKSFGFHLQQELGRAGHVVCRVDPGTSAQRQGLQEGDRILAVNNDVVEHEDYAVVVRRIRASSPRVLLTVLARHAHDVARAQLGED

APBA2_2, Q99767 = biological target: T9, APBA2_2, Q99767
T9 sequence (Q99767 654-744, limits assumed, looked up): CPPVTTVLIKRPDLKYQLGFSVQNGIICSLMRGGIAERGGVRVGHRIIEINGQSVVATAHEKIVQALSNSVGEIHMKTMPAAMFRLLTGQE

DFNB31_3, Q9P202 = biological target: T10, DFNB31_3, Q9P202
T10 sequence (Q9P202 811-907, limits assumed, looked up): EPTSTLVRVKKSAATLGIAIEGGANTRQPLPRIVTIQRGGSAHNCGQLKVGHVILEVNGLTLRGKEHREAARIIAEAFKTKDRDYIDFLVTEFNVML

[1] = plain residues with an end cap or a label only (N-terminal biotin on a linker: ado-ado)
[2] = plain residues with an end cap or a label only (N-terminal biotin on a linker: gsgsgs; C-terminal amide)
[3] = plain residues with an end cap or a label only (N-terminal biotin on a linker: ttds)

Chain of MAGI2_2, Q86UL8 (Q86UL8 410-522): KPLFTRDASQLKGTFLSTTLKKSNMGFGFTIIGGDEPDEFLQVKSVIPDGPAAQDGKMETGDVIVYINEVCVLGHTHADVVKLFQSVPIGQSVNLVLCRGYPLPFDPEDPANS

B1: CES2, O00748 (peptide)
chain: EEPEERHTEL
Question: What does the source list for B1?
Answer: pKd (MAGI2_2, Q86UL8; [1]): below the threshold; pKd (RADIL, Q96JH8; [1]): below the threshold; pKd (Inadl_10, Q8NI35; [1]): below the threshold; pKd (DLG2_2, Q15700; [1]): 3.86; pKd (ARHGAP21, Q5T5U3; [1]): below the threshold; pKd (DLG1_2, Q12959; [1]): 4.13; pKd (PDLIM1, O00151; [1]): 3.59; pKd (TIAM2, Q8IVF5; [1]): 4.07; pKd (MPP2, Q14168; [1]): below the threshold; pKd (RHPN1, Q8TCX5; [1]): 4.19; pKd (NHERF3_3, Q5T2W1; [1]): below the threshold; pKd (PDZRN4_1, Q6ZMN7; [1]): 4.13; pKd (DLG1_1, Q12959; [1]): below the threshold; pKd (Inadl_6, Q8NI35; [1]): 3.87; pKd (LIN7B, Q9HAP6; [1]): 3.89; pKd (NHERF3_1, Q5T2W1; [1]): 4.72; pKd (Inadl_2, Q8NI35; [1]): below the threshold; pKd (GRASP, Q7Z6J2; [1]): 4.62; pKd (ARHGEF12, Q9NZN5-2; [1]): 5.03; pKd (DLG5_1, Q8TDM6; [1]): below the threshold; pKd (Inadl_8, Q8NI35; [1]): below the threshold; pKd (GIPC2, Q8TF65; [1]): below the threshold; pKd (LDB3, O75112; [1]): below the threshold; pKd (GRID2IP_1, A4D2P6; [1]): below the threshold; pKd (NHERF4_1, Q86UT5-2; [1]): 4.09; pKd (APBA2_2, Q99767; [1]): below the threshold; pKd (DFNB31_3, Q9P202; [1]): 3.86

B2: ARAP3_int, Q8WWN8 (peptide)
chain: ELIQDTSTSFSTTREW
Question: B2 was tested. Which pKd (MAGI2_2, Q86UL8; [2]) did it give?
Answer: below the threshold

Question: What about the pKd (RADIL, Q96JH8; [2]) of the same binder?
Answer: below the threshold

Question: What about the pKd (Inadl_10, Q8NI35; [2]) of the same binder?
Answer: below the threshold

Question: What about the pKd (DLG2_2, Q15700; [2]) of the same binder?
Answer: below the threshold

Question: And the pKd (ARHGAP21, Q5T5U3; [2])?
Answer: below the threshold

Question: And the pKd (DLG1_2, Q12959; [2])?
Answer: below the threshold

Question: What about the pKd (PDLIM1, O00151; [2]) of the same binder?
Answer: below the threshold

Question: And the pKd (TIAM2, Q8IVF5; [2])?
Answer: 3.97

Question: What about the pKd (MPP2, Q14168; [2]) of the same binder?
Answer: below the threshold

Question: And the pKd (RHPN1, Q8TCX5; [2])?
Answer: below the threshold

Question: What about the pKd (NHERF3_3, Q5T2W1; [2]) of the same binder?
Answer: below the threshold

Question: And the pKd (PDZRN4_1, Q6ZMN7; [2])?
Answer: below the threshold

Question: And the pKd (DLG1_1, Q12959; [2])?
Answer: below the threshold

Question: What about the pKd (Inadl_6, Q8NI35; [2]) of the same binder?
Answer: below the threshold

Question: And the pKd (LIN7B, Q9HAP6; [2])?
Answer: 3.67

Question: What about the pKd (NHERF3_1, Q5T2W1; [2]) of the same binder?
Answer: below the threshold

Question: And the pKd (Inadl_2, Q8NI35; [2])?
Answer: below the threshold

Question: What about the pKd (GRASP, Q7Z6J2; [2]) of the same binder?
Answer: below the threshold

Question: What about the pKd (ARHGEF12, Q9NZN5-2; [2]) of the same binder?
Answer: below the threshold

Question: And the pKd (DLG5_1, Q8TDM6; [2])?
Answer: below the threshold

Question: And the pKd (Inadl_8, Q8NI35; [2])?
Answer: below the threshold

Question: What about the pKd (GIPC2, Q8TF65; [2]) of the same binder?
Answer: below the threshold

Question: What about the pKd (LDB3, O75112; [2]) of the same binder?
Answer: below the threshold

Question: And the pKd (GRID2IP_1, A4D2P6; [2])?
Answer: below the threshold

Question: What about the pKd (NHERF4_1, Q86UT5-2; [2]) of the same binder?
Answer: below the threshold

Question: And the pKd (APBA2_2, Q99767; [2])?
Answer: below the threshold

Question: What about the pKd (DFNB31_3, Q9P202; [2]) of the same binder?
Answer: 3.83

B3: EPHA7, Q15375 (peptide)
chain: LHLHGTGIQV
Question: What does the source list for B3?
Answer: pKd (MAGI2_2, Q86UL8; [1]): 3.51; pKd (RADIL, Q96JH8; [1]): 4.58; pKd (Inadl_10, Q8NI35; [1]): below the threshold; pKd (DLG2_2, Q15700; [1]): below the threshold; pKd (ARHGAP21, Q5T5U3; [1]): 3.73; pKd (DLG1_2, Q12959; [1]): 3.6; pKd (PDLIM1, O00151; [1]): below the threshold; pKd (TIAM2, Q8IVF5; [1]): below the threshold; pKd (MPP2, Q14168; [1]): below the threshold; pKd (RHPN1, Q8TCX5; [1]): below the threshold; pKd (NHERF3_3, Q5T2W1; [1]): below the threshold; pKd (PDZRN4_1, Q6ZMN7; [1]): 3.57; pKd (DLG1_1, Q12959; [1]): below the threshold; pKd (Inadl_6, Q8NI35; [1]): below the threshold; pKd (LIN7B, Q9HAP6; [1]): below the threshold; pKd (NHERF3_1, Q5T2W1; [1]): below the threshold; pKd (Inadl_2, Q8NI35; [1]): below the threshold; pKd (GRASP, Q7Z6J2; [1]): below the threshold; pKd (ARHGEF12, Q9NZN5-2; [1]): 4.19; pKd (DLG5_1, Q8TDM6; [1]): below the threshold; pKd (Inadl_8, Q8NI35; [1]): below the threshold; pKd (GIPC2, Q8TF65; [1]): below the threshold; pKd (LDB3, O75112; [1]): below the threshold; pKd (GRID2IP_1, A4D2P6; [1]): below the threshold; pKd (NHERF4_1, Q86UT5-2; [1]): 3.85; pKd (APBA2_2, Q99767; [1]): below the threshold; pKd (DFNB31_3, Q9P202; [1]): 3.99

B4: SLC16A1, P53985 (peptide)
chain: GGPKEEESPV
Question: Which results are given for B4?
Answer: pKd (MAGI2_2, Q86UL8; [3]): below the threshold; pKd (RADIL, Q96JH8; [3]): below the threshold; pKd (Inadl_10, Q8NI35; [3]): below the threshold; pKd (DLG2_2, Q15700; [3]): below the threshold; pKd (ARHGAP21, Q5T5U3; [3]): below the threshold; pKd (DLG1_2, Q12959; [3]): 3.56; pKd (PDLIM1, O00151; [3]): below the threshold; pKd (TIAM2, Q8IVF5; [3]): below the threshold; pKd (MPP2, Q14168; [3]): below the threshold; pKd (RHPN1, Q8TCX5; [3]): below the threshold; pKd (NHERF3_3, Q5T2W1; [3]): below the threshold; pKd (PDZRN4_1, Q6ZMN7; [3]): below the threshold; pKd (DLG1_1, Q12959; [3]): below the threshold; pKd (Inadl_6, Q8NI35; [3]): below the threshold; pKd (LIN7B, Q9HAP6; [3]): below the threshold; pKd (NHERF3_1, Q5T2W1; [3]): 3.63; pKd (Inadl_2, Q8NI35; [3]): below the threshold; pKd (GRASP, Q7Z6J2; [3]): below the threshold; pKd (ARHGEF12, Q9NZN5-2; [3]): below the threshold; pKd (DLG5_1, Q8TDM6; [3]): below the threshold; pKd (Inadl_8, Q8NI35; [3]): below the threshold; pKd (GIPC2, Q8TF65; [3]): below the threshold; pKd (LDB3, O75112; [3]): below the threshold; pKd (GRID2IP_1, A4D2P6; [3]): below the threshold; pKd (NHERF4_1, Q86UT5-2; [3]): below the threshold; pKd (APBA2_2, Q99767; [3]): below the threshold; pKd (DFNB31_3, Q9P202; [3]): below the threshold
